From paper doi:10.1101/464131, “Increased association between Epstein-Barr virus EBNA2 from type 2 strains and the transcriptional repressor BS69 restricts B cell growth” (bioRxiv, 2018)

B3: BS69 CC-MYND domain (amino acids 480-602) (domain or fragment, human, UniProt Q15326-1 480-602, looked up)
chain: DRMKSDHKRETERVVREALEKLRSEMEEEKRQAVNKAVANMQGEMDRKCKQVKEKCKEEFVEEIKKLATQHKQLISQTKKKQWCYNCEEEAMYHCCWNTSYCSIKCQQEHWHAEHKRTCRRKR
notes: BS69 (ZMYND11), human, C-terminal region with the coiled-coil and MYND domains, amino acids 480-602; canonical isoform 1 of 602 amino acids; Dimer by SEC-MALS; Amplified from pCI-BS69 and cloned into pET49b+; also called ZMYND11; source: E. coli Rosetta 2 (DE3) pLysS, purified (cobalt resin, 3C protease cleavage, Superdex 75); not shown: GST, N-terminal, cleaved; His6, N-terminal, cleaved

Experiments:
[1] = molecular target: B3; test: ITC; EBNA2 polypeptide titrated into BS69CC-MYND (0.1 mM) in the cell, 19 x 2.0 μl injections, 25°C, 20 mM Tris-HCl, 100 mM NaCl, 1 mM TCEP, pH 7.5; one set of sites model; n calculated for monomeric proteins; details: both partners purified
[2] = molecular target: T1, BS69 CC-MYND domain (amino acids 480-602) (human, UniProt Q15326-1 480-602); test: ITC
T1 chain: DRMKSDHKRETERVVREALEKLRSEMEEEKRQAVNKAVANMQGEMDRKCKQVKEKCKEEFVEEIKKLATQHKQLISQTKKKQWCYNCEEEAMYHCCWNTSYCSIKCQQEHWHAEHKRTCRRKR

[3] = molecular target: the molecule itself; test: SEC-MALS; individual proteins, 5 mg/ml, Shodex KW403-4F column, 25°C, 20 mM Tris-HCl, 100 mM NaCl, 1 mM TCEP, pH 7.5
[4] = molecular target: B3; test: ITC; EBNA2 peptide (1 mM) titrated into BS69CC-MYND (0.1 mM) in the cell, 13 injections, 25°C, 20 mM Tris-HCl, 100 mM NaCl, 1 mM TCEP, pH 7.5; one-site model with n fixed to 1; details: both partners purified
[5] = molecular target: B3; test: ITC; EBNA2 polypeptide titrated into BS69CC-MYND (0.1 mM) in the cell, 29 x 1.3 μl injections, 25°C, 20 mM Tris-HCl, 100 mM NaCl, 1 mM TCEP, pH 7.5; two sets of sites (two event) model; details: both partners purified

B1: type 2 EBNA2 polypeptide T2 EBNA2_(348-412) (domain or fragment)
chain: SMPQLSPVVSLHQGQGPENSPTPGPSTAGPVCRVTPSATPDISPIHEPESSDSEEPPFLFPSDWY
notes: pET47b+ construct; also called type 2 EBNA2_(348-412); source: E. coli Rosetta 2 (DE3) pLysS, purified (cobalt resin, 3C protease cleavage, Superdex 75); not shown: His6, N-terminal, cleaved
Kd [1]: 1210 nM
stoichiometry N [1]: 0.33 molar ratio EBNA2 : BS69CC-MYND monomer

B2: type 1 EBNA2 polypeptide T1 EBNA2_(381-455) (domain or fragment)
chain: SMPELSPVLGLHQGQGAGDSPTPGPSNAAPVCRNSHTATPNVSPIHEPESHNSPEAPILFPDDWYPPSIDPADLD
Kd [2]: 730 nM

B3
stoichiometry N [3]: 2

B4: type 2 EBNA2 motif 2 peptide (402-412) (peptide)
peptide: EPPFLFPSDWY
notes: source: synthetic peptide (Peptide Synthetics)
Kd [4]: 176000 nM

B5: type 2 EBNA2 polypeptide T2 EBNA2_(348-422) (domain or fragment)
chain: SMPQLSPVVSLHQGQGPENSPTPGPSTAGPVCRVTPSATPDISPIHEPESSDSEEPPFLFPSDWYPPTLEPAELD
notes: pET47b+ construct; Monomer by SEC-MALS; also called type 2 EBNA2_(348-422); source: E. coli Rosetta 2 (DE3) pLysS, purified (cobalt resin, 3C protease cleavage, Superdex 75); not shown: His6, N-terminal, cleaved
dH (second binding event) [5]: -1.59 kcal/mol
stoichiometry N [1]: 0.15 molar ratio EBNA2 : BS69CC-MYND monomer
Kd [2]: 1010 nM

B6: T2 EBNA2_(348-422) motif 3 mt (domain or fragment)
chain: SMPQLSPVVSLHQGQGPENSPTPGPSTAGPVCRVTPSATPDISPIHEPESSDSEEPPFLFPSDWYPATAEAAELD
notes: EBNA2 of type 2 EBV (AG876), amino acids 348-422, motif 3 (PTLEP 414-418) mutated to ATAEA; source: E. coli Rosetta 2 (DE3) pLysS, purified (cobalt resin, 3C protease cleavage, Superdex 75); not shown: His6, N-terminal, cleaved
stoichiometry N [1]: 0.3 molar ratio EBNA2 : BS69CC-MYND monomer

B7: T2 EBNA2_(348-422) SD mutant (domain or fragment)
chain: SMPQLSPVVSLHQGQGPENSPTPGPSTAGPVCRVTPSATPDISPIHEPESSDSEEPPFLFPDDWYPPTLEPAELD
notes: EBNA2 of type 2 EBV (AG876), amino acids 348-422 with serine 409 changed to aspartate (the position that is 442 in type 1 EBNA2); text and methods print 409; source: E. coli Rosetta 2 (DE3) pLysS, purified (cobalt resin, 3C protease cleavage, Superdex 75); not shown: His6, N-terminal, cleaved
dH (second binding event) [5]: -7.65 kcal/mol

B8: EBNA2_(348-422) SD + m3 mt (domain or fragment)
chain: SMPQLSPVVSLHQGQGPENSPTPGPSTAGPVCRVTPSATPDISPIHEPESSDSEEPPFLFPDDWYPATAEAAELD
notes: EBNA2 of type 2 EBV (AG876), amino acids 348-422 with S409D and motif 3 (PTLEP 414-418) mutated to ATAEA; also called T2 EBNA2_(348-422) SD + motif 3 mt; double mutant type 2 EBNA2 polypeptide; source: E. coli Rosetta 2 (DE3) pLysS, purified (cobalt resin, 3C protease cleavage, Superdex 75); not shown: His6, N-terminal, cleaved
dH (second binding event) [5]: -9.62 kcal/mol
fold reduction of the affinity of the second binding event (KD2) against m11 [5]: ~2 fold

B9: type 2 EBNA2 motif 3 peptide T2 EBNA2_(412-422) (peptide)
peptide: YPPTLEPAELD
notes: as for B4
Kd [4]: 219000 nM
